{"source": "patent US20110092681A1", "target": "rFVIII (recombinant Factor VIII) (UniProt P00451)", "assay": "ELISA chromogenic assay (ECA): rFVIII incubated with rVWF, complex captured on anti-VWF antibody, bound FVIII read by chromogenic assay", "note": "Values joined by “and” are separate entries in the source; they are usually repeats but may differ in a detail not shown here. Equal entries are not always repeated."}
{"substance": "human recombinant VWF (rVWF) (from UniProt P04275 764-2813)", "values": [{"measurement": "FVIII binding (%)", "result": "51.7% and 64.6% and 63.1%"}]}
